Target: envelope (E) protein of DENV3 reference strain CH53489, on the virus particle (dengue virus serotype 3, strain CH53489)

B1: Fab fragment of human monoclonal antibody 5J7 (Fab, V domains shown)
VH: QVQLVQSGAELRKPGSSVKVSCRASGGTFSSYTFNWVRQAPGQGLEWMGGFIPVFNTTNYAQTFQGRVTIAADKSTSTAYMELRSLRSEDTAIYYCARDKELLFSRAFDIWGQGTMVTVSS
VL: DIQMTQSPSSLSASVGDRVTITCRASQSISRYLNWYQREPGKAPKLLIYGASSLQRGVPSRFSGSGSGTDFTLTISSLQPEDFATYYCQQSQYIPYTFGQGTKVDIK
Q: With B1 as the binder, how does the neut50, flow cytometry-based neutralization of DENV3 (CH53489) infection of Vero-81 cells read?
A: Its neut50, flow cytometry-based neutralization of DENV3 (CH53489) infection of Vero-81 cells is 0.041 µg/mL.

Source: PMC4346626
